According to US11124550B2, “Proteinaceous molecules and methods of use” (priority 2015, dated 2021):
Positions of bridges follow the written chain, without caps; N, C: chain ends. Residues, ends and D or L forms follow the SMILES beside them.

Assays:
hNav1.1 [1] = target: T1, hNav1.1 (Homo sapiens, UniProt P35498); test: Automated whole-cell patch clamp (QPatch 16X), sustained currents in HEK293 cells; assay type: cell-based; conditions: for fast inactivation and sustained current at end of depolarising pulse, hNav1.1: 300 nM; for EC50: HEK293 cells stably expressing hNav1.1, n=3, read-out: EC50 for evoking sustained currents at hNav1.1
T1 construct: expressed in transfected cells; host or cells: HEK293T
Protocol: The activity of recombinant Hm1b was assessed at hNav1.1-1.7. Sodium currents were measured from hNav channels stably expressed in HEK293 cells using an automated whole-cell patch-clamp electrophysiology system (QPatch 16X; Sophion, Ballerup, Denmark). The extracellular solution comprised 2 mM CaCl2), 1 mM MgCl2, 10 mM HEPES, 4 mM KCl, 145 mM NaCl, 10 mM D-glucose at pH 7.3, and 305 mOsm. The intracellular solution comprised 140 mM CsF, 1 mM/5 mM EGTA/CsOH, 10 mM HEPES, 10 mM NaCl at pH 7.3, osmolality 320 mOsm. The elicited currents were sampled at 25 kHz and filtered at 5 kHz. Cells were maintained at a holding potential of −80 mV and sodium currents were elicited by 210 ms voltage steps at 0 mV after a 50 ms conditioning step from −120 mV. For dose-response experiments, cells were incubated for 5 min with increasing concentrations of Hm1b. Peptide stock solutions were made up to 10 μM and serial dilutions were prepared in extracellular solution containing 0.1% BSA. Graphs and fittings were performed using Prism 7.0 (GraphPad Software, San Diego, Calif.). Numerical data are presented as mean SEM based on at least three experiments (n≥3).
The point mutation (Lys to Ser at position 11) was introduced into the pLIC-MBP-Hm1b expression plasmid (produced according to the methods of Example 7) by polymerase chain reaction (PCR) using mutagenic primers and standard protocols with Platinum Pfx DNA Polymerase (Invitrogen). Mutagenic primers were designed using the online tool PrimerX and synthesised by Integrated DNA Technologies, Inc. (Emu Heights, NSW). DNA from the mutant construct was isolated and sequenced to verify the desired mutation (AGRF, Brisbane, Australia). Plasmid DNA was isolated using ISOLATE II plasmid Mini Kit (Bioline, London, UK) for transformation into E. coli BL21 cells for recombinant peptide production. […].

TG or DRG neurons = test: Calcium imaging of cultured somatosensory neurons (Fura-2); assay type: cell-based, rat
[2] = after 72 hours, 37° C., 1 μM
in vitro = conditions: human, cerebrospinal or other body fluid
hNav1.2 = target: T2, hNav1.2 (Homo sapiens, UniProt Q99250); test: Automated planar whole-cell patch clamp (Patchliner), hSCN2A HEK293T cells; assay type: cell-based
T2 construct: expressed in transfected cells; host or cells: HEK293T
Excerpt: (§1) To characterize the functional activity of Hm1a and Hm1b, HEK293T cells stably transfected with either hSCN1A, hSCN2A, hSCN3A, hSCN5A, hSCN9A or hSCN10A as well as CHO cells stably transfected with hSCN4A or hSCN8A were used for whole-cell patch-clamp analysis with a high throughput automated planar patch-clamp technology.
(§2) HEK293T cells stably transfected with either hSCN1A, hSCN2A, hSCN3A, hSCN5A, hSCN9A or hSCN10A were maintained in Dulbecco's Modified Eagle's Medium Nutrient Mixture F-12 (Invitrogen, Carlsbad, Calif., USA) supplemented with 10% (v/v) foetal bovine serum (FBS) (Invitrogen), 0.9% Penicillin/Streptomycin (P/S) solution and 100 μg/mL hygromycin or 100 μg/mL neomycin. CHO cells stably transfected with hSCN4A or hSCN8A were maintained in Ham's F12 Nutrient Mixture (Invitrogen, Carlsbad, Calif., USA) supplemented with 10% (v/v) FBS, 0.9% P/S solution and 100 μg/mL hygromycin. All cells were grown in T75 flasks (BD Biosciences, San Jose, Calif., USA) to ˜70% confluency.
(§3) Patch-clamp recordings were conducted in the whole-cell configuration using a Patchliner® (Nanion Technologies, Munich, Germany). […]
(§4) The voltage dependence of activation was studied by measuring the normalised peak currents during 100 ms depolarisations from −120 mV to +30 mV in 5 mV increments. The resulting current-voltage curve was fit to the equation I=[I+exp(−0.03937.z.(V−V1/2)]/g.(V−Vr), where I is current amplitude; z is apparent gating charge; V is test potential; V1/2 is half maximal voltage; g is a factor related to the maximum number of open channels; and Vr is reversal potential. Conductance was determined using G=I/(V−Vr), where G is conductance. The conductance values were then fit with the Boltzmann equation G=1/(1+exp[(V−V1/2)/a]), where a is the slope of the half-maximum, V is the potential of the given pulse and V1/2 is the potential for the half-maximal activation. To study steady-state fast inactivation, cells were held at conditioning pre-pulse potentials ranging from −120 mV to +30 mV in 5 mV increments from a holding potential of −120 mV and a test pulse at 0 mV for 20 ms. […]

hNav1.1 [3] = target: T1, hNav1.1; test: Automated planar whole-cell patch clamp (Patchliner), hSCN1A HEK293T cells; assay type: cell-based
Excerpt: as §1, §2
Patch-clamp recordings were conducted in the whole-cell configuration using a Patchliner® (Nanion Technologies, Munich, Germany). Before recordings, cells were detached from culture flasks with Accutase Cell Detachment Solution (Innovative Cell Technologies Inc., San Diego, Calif., USA) and resuspended at a density of 1×10^6 to 5×10^7 per milliliter in 50% serum free media and 50% external recording solution v/v. The external recording solution comprised: 140 mM NaCl, 4 mM KCl, 1 mM MgCl2, 2 mM CaCl2), 5 mM D-glucose, 10 mM HEPES (pH adjusted to 7.4 with NaOH). The osmolarity of this solution was 298 mOsm. The internal recording solution comprised: 50 mM CsCl, 10 mM NaCl, 60 mM CsF, 2 mM MgCl2, 20 mM EGTA, 10 mM HEPES (pH adjusted to 7.2 with CsOH) and the osmolarity of this solution was 285 mOsm. […]
as §4

hNav1.6 = target: T3, hNav1.6 (Homo sapiens, UniProt Q9UQD0); test: Automated planar whole-cell patch clamp (Patchliner), hSCN8A CHO cells; assay type: cell-based
T3 construct: expressed in transfected cells; host or cells: CHO
T3 sequence (Q9UQD0 whole entry): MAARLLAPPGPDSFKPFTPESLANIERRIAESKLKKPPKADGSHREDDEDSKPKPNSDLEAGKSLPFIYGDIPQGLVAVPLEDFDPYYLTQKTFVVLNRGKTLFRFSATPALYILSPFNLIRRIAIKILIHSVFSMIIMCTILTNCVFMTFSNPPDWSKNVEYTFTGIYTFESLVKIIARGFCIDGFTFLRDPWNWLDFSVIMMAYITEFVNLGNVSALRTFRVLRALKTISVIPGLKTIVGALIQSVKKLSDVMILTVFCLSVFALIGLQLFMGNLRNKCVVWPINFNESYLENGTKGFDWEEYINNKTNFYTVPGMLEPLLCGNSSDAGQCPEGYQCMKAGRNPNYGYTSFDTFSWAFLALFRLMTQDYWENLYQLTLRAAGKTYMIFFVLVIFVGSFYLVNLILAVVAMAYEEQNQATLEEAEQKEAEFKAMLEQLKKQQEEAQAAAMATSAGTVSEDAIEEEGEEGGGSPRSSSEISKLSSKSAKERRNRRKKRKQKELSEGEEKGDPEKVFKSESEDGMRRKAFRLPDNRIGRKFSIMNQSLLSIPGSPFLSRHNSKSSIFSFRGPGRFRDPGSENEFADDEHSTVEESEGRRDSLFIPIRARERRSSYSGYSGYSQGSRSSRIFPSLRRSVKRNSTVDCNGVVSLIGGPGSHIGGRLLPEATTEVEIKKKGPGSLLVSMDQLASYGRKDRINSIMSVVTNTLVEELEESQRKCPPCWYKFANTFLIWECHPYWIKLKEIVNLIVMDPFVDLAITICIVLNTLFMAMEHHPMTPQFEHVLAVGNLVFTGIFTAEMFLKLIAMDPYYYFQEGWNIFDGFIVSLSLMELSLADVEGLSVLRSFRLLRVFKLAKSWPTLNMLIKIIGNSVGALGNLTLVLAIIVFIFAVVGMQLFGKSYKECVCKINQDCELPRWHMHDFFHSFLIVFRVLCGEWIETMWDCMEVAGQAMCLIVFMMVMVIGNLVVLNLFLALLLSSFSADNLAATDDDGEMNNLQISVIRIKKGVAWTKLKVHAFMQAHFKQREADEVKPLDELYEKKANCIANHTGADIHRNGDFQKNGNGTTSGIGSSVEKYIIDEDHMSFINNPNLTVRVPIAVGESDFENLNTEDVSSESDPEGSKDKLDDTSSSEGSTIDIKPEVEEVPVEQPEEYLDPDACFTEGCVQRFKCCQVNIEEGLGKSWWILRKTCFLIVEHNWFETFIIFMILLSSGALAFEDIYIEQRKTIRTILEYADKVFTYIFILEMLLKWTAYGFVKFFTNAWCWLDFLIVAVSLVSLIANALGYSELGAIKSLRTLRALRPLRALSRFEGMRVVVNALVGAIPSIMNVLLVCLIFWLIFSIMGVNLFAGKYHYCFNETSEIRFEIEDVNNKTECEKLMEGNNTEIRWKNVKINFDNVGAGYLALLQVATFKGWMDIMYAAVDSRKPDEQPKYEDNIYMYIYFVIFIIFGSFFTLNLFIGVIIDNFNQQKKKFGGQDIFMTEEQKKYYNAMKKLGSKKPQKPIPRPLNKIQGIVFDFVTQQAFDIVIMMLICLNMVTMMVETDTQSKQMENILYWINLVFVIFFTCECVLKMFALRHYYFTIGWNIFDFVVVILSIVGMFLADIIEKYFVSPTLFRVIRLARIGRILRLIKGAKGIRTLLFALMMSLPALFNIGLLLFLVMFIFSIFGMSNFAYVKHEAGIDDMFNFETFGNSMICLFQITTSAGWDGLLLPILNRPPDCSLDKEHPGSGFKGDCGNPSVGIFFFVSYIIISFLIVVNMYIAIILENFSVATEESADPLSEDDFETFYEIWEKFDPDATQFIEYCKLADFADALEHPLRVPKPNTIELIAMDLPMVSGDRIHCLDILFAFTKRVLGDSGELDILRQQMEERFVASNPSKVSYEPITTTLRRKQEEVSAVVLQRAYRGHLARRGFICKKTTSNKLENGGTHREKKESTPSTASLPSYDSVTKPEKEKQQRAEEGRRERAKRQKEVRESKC
Excerpt: as §1, §2, §3, §4

hNav1.3 = target: T4, hNav1.3 (Homo sapiens, UniProt Q9NY46); test: Automated planar whole-cell patch clamp (Patchliner), hSCN3A HEK293T cells; assay type: cell-based
T4 construct: expressed in transfected cells; host or cells: HEK293T
T4 sequence (Q9NY46 whole entry): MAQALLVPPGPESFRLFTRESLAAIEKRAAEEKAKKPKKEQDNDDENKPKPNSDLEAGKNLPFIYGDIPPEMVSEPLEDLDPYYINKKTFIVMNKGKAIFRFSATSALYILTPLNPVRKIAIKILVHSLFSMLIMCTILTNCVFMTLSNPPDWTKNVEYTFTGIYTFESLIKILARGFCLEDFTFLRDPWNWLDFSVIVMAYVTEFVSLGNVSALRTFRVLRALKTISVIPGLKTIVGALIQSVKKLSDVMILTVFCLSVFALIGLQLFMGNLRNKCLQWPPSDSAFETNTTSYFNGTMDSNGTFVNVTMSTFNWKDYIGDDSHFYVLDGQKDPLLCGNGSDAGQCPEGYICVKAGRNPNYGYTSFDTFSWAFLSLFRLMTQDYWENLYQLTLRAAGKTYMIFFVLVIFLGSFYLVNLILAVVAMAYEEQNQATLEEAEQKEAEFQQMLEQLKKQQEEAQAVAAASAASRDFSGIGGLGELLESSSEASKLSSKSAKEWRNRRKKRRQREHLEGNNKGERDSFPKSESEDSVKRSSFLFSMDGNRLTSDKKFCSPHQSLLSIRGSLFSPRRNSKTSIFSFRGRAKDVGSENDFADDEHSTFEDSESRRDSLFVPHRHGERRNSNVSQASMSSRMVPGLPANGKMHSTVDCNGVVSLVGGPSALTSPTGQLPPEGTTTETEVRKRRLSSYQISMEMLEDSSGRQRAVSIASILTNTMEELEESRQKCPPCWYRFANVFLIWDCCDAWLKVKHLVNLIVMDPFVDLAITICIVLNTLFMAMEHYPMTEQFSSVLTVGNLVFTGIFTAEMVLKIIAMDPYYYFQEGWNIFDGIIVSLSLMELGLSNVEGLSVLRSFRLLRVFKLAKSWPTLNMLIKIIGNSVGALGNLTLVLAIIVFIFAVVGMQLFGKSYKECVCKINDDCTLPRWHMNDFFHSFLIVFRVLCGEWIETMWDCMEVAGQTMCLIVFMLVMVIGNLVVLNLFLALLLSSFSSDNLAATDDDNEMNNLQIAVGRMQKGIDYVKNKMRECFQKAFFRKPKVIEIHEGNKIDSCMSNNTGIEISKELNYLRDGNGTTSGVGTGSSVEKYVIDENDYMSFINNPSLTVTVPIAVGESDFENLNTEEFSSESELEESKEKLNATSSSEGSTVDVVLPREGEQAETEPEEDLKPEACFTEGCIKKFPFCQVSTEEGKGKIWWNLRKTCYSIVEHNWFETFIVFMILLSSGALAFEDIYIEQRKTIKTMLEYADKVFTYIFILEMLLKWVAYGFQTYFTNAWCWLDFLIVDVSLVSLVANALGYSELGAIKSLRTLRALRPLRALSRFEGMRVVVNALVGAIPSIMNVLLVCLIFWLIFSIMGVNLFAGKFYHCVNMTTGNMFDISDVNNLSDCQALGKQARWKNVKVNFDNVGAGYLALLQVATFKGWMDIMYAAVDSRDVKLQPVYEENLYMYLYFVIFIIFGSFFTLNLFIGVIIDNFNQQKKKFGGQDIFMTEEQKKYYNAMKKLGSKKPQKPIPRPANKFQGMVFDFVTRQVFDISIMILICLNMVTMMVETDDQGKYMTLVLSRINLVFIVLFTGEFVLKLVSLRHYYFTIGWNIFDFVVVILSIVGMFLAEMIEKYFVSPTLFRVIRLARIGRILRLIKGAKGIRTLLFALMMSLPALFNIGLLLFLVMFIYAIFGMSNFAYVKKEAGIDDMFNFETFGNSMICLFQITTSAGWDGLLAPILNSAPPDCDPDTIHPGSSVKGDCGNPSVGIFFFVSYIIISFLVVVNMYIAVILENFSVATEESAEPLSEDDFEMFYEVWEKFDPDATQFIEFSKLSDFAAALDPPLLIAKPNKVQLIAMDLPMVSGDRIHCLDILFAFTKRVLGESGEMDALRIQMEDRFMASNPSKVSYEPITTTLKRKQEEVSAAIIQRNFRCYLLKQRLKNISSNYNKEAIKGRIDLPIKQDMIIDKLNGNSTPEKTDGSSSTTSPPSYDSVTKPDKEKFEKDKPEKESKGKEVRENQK
Excerpt: as §1, §2, §3, §4

[4] = 5 nM and 50 nM, potentials more positive than −15 mV

Molecule: CC(C)C[C@@H]1NC(=O)[C@H](Cc2c[nH]cn2)NC(=O)[C@H](CCCCN)NC(=O)[C@@H]2CSSC[C@H](NC(=O)[C@H](CCC(=O)O)NC(=O)[C@@H](N)CO)C(=O)N[C@@H](CCCNC(=N)N)C(=O)N[C@@H](Cc3ccc(O)cc3)C(=O)N[C@@H](CC(C)C)C(=O)N[C@@H](Cc3ccccc3)C(=O)NCC(=O)NCC(=O)N[C@H]3CSSC[C@H](NC(=O)CNC1=O)C(=O)N[C@@H](CCCNC(=N)N)C(=O)N[C@@H]([C@@H](C)O)C(=O)N[C@@H](CC(=O)O)C(=O)N[C@@H](CC(C)C)C(=O)N[C@@H](Cc1ccc(O)cc1)C(=O)N[C@@H](Cc1ccc(O)cc1)C(=O)N[C@H](C(=O)N[C@@H](C)C(=O)N[C@@H](Cc1c[nH]c4ccccc14)C(=O)N[C@@H](CC(=O)O)C(=O)NCC(=O)N[C@H](C(=O)N[C@@H](Cc1ccccc1)C(=O)O)[C@@H](C)O)CSSC[C@H](NC(=O)[C@H](CC(=O)O)NC(=O)[C@H](C)NC(=O)[C@H]([C@@H](C)O)NC(=O)[C@H]([C@@H](C)O)NC(=O)[C@H](CO)NC3=O)C(=O)N2 [recombinant Hm1b[K11S]] (H-SECRYLFGGCSTTADCCKHLGCRTDLYYCAWDGTF-OH; disulfide 3-17, 10-22, 16-29)
- fast inactivation and sustained current at end of depolarising pulse, hNav1.1 (hNav1.1 [1]): delayed fast inactivation
- EC50 (hNav1.1 [1]): 0.0395 µM

Molecule: NC1=N[C@H](O)[C@H]2[C@H]3O[C@]4(O)O[C@@H]([C@@H](O)[C@@]2(N1)[C@@H]4O)[C@]3(O)CO [TTX, Tetrodotoxin]
- Hm1a-evoked calcium responses (TG or DRG neurons): blocked

Molecule: O=C(Nc1ccc(S(=O)(=O)Nc2nccs2)cc1)C(c1ccccc1)c1ccccc1 [ICA-121431]
- calcium responses induced by Hm1a (TG or DRG neurons; ICA-121431 500 nM): greatly diminish
- responses to SGTx1 (TG or DRG neurons; in presence of ICA-121431): did not attenuate

Molecule: CC[C@H](C)[C@@H]1NC(=O)[C@H](CCCNC(=N)N)NC(=O)[C@H](CC(=O)O)NC(=O)[C@H](CCSC)NC(=O)[C@H](CCCNC(=N)N)NC(=O)CNC(=O)CNC(=O)[C@H](Cc2ccccc2)NC(=O)[C@@H](NC(=O)[C@H](CO)NC(=O)[C@H](CO)NC(=O)[C@H](CCCNC(=N)N)NC(=O)[C@H](CCCNC(=N)N)NC(=O)[C@H](CC(C)C)NC(=O)[C@@H](N)CO)CSSC[C@@H](C(=O)N[C@@H](CC(N)=O)C(=O)N[C@@H](CO)C(=O)N[C@@H](Cc2ccccc2)C(=O)N[C@@H](CCCNC(=N)N)C(=O)N[C@@H](Cc2ccc(O)cc2)C(=O)O)NC(=O)CNC(=O)[C@H](CC(C)C)NC(=O)CNC(=O)[C@H](CO)NC(=O)[C@H](CCC(N)=O)NC(=O)[C@H](C)NC(=O)CNC1=O [hANP]
- peptide remaining in human CSF [2]: no detectable

Molecule: CSCC[C@@H]1NC(=O)[C@H](CC(C)C)NC(=O)[C@H](CCCNC(=N)N)NC(=O)[C@H](CO)NC(=O)[C@@H]2CSSC[C@@H]3NC(=O)[C@H](CO)NC(=O)CNC(=O)[C@H]([C@@H](C)O)NC(=O)[C@H](CSSC[C@H](N)C(=O)N[C@@H](CCCCN)C(=O)NCC(=O)N[C@@H](CCCCN)C(=O)NCC(=O)N[C@@H](C)C(=O)N[C@@H](CCCCN)C(=O)N2)NC(=O)[C@H](CSSC[C@@H](C(N)=O)NC(=O)[C@H](CCCCN)NC(=O)CNC(=O)[C@H](CO)NC(=O)[C@H](CCCNC(=N)N)NC3=O)NC(=O)[C@H](CC(=O)O)NC(=O)[C@H](Cc2ccc(O)cc2)NC1=O [ω-conotoxin MVIIA]
- remaining at 72 h (in vitro): ~10%

Molecule: ECRYLFGGCKTTADCCKHLGCRTDLYYCAWDGTF-NH2 [Hm1b]
- voltage-dependence of fast inactivation of hNav1.2 (hNav1.2): does not appear to alter
- hNav1.2 channel inactivation (hNav1.2; 1 nM, 5 nM or 50 nM): did not have a significant effect
- time constants of fast inactivation of hNav1.2 (hNav1.2; 50 nM, potentials more positive than −10 mV): increases
- voltage-dependence of fast inactivation of hNav1.1 (hNav1.1 [3]): does not appear to alter
- voltage-dependence of steady-state activation of hNav1.1 (hNav1.1 [3]): slight hyperpolarizing shift
- time constants of fast inactivation of hNav1.1 (hNav1.1 [3]; [4]): increases
- hNav1.1 channel inactivation (hNav1.1 [3]; 1, 5 or 50 nM): potently inhibits
- time constants of fast inactivation of hNav1.6 (hNav1.6): did not have an effect
- voltage-dependence of fast inactivation of hNav1.6 (hNav1.6): does not appear to alter
- hNav1.6 channel inactivation (hNav1.6; 5 nM and 50 nM, slight inhibitory effect, compared with hNav1.3): to a lesser extent
- voltage-dependence of fast inactivation of hNav1.3 (hNav1.3): does not appear to alter
- hNav1.3 channel inactivation (hNav1.3; 5 nM and 50 nM): slight inhibitory effect
- time constants of fast inactivation of hNav1.3 (hNav1.3; [4]): increased

Molecule: CC(C)C[C@@H]1NC(=O)[C@H](Cc2c[nH]cn2)NC(=O)[C@H](CCCCN)NC(=O)[C@@H]2CSSC[C@H](NC(=O)[C@H](CCC(=O)O)NC(=O)[C@@H](N)CO)C(=O)N[C@@H](CCCNC(=N)N)C(=O)N[C@@H](Cc3ccc(O)cc3)C(=O)N[C@@H](CC(C)C)C(=O)N[C@@H](Cc3ccccc3)C(=O)NCC(=O)NCC(=O)N[C@H]3CSSC[C@H](NC(=O)CNC1=O)C(=O)N[C@@H](CCCNC(=N)N)C(=O)N[C@@H]([C@@H](C)O)C(=O)N[C@@H](CC(=O)O)C(=O)N[C@@H](CC(C)C)C(=O)N[C@@H](Cc1ccc(O)cc1)C(=O)N[C@@H](Cc1ccc(O)cc1)C(=O)N[C@H](C(=O)N[C@@H](C)C(=O)N[C@@H](Cc1c[nH]c4ccccc14)C(=O)N[C@@H](CC(=O)O)C(=O)NCC(=O)N[C@H](C(=O)N[C@@H](Cc1ccccc1)C(=O)O)[C@@H](C)O)CSSC[C@H](NC(=O)[C@H](CC(=O)O)NC(=O)[C@H](C)NC(=O)[C@H]([C@@H](C)O)NC(=O)[C@H]([C@@H](C)O)NC(=O)[C@H](CCCCN)NC3=O)C(=O)N2 [recombinant Hm1b]
- fast inactivation and sustained current at end of depolarising pulse, hNav1.1 (hNav1.1 [1]): delayed fast inactivation and induced a sustained current
- EC50 (hNav1.1 [1]): 0.0185 µM
- selectivity for hNav1.1 over hNav1.2, hNav1.4, hNav1.5, hNav1.6 and hNav1.7 (hNav1.1 [1]; sustained currents at 300 nM): very high level of selectivity
